Test results taken from paper PMC6971075, “Augmentation of Bri2 molecular chaperone activity against amyloid-β reduces neurotoxicity in mouse hippocampus in vitro” (Communications Biology, 2020).

T1: rh wild-type Bri2 BRICHOS-mCherry (human, UniProt Q9Y287 113-231)
T1 construct: Bri2 BRICHOS domain, human (rh = recombinant human), Bri2 residues 113-231; Used as isolated oligomers; also called rh Bri2 BRICHOS-mCherry; source: E. coli SHuffle T7, purified (same protocol as R221E; oligomers isolated on Superdex 200 PG); not shown: His6, N-terminal, cleaved; NT*, N-terminal, cleaved; mCherry, C-terminal, kept
T1 sequence (looked up): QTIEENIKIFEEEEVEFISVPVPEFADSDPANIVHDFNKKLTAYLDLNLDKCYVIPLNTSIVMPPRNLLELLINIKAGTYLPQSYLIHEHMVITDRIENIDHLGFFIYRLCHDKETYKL


Tests used:
[1] = molecular target: the molecule itself; test: SEC; isolated monomers at low concentration (~7.5 µM) and high concentrations (54 µM for R221E, 30 µM for wt)
[2] = molecular target: T1, rh wild-type Bri2 BRICHOS-mCherry; test: not stated; coincubation of R221E monomers with Bri2 BRICHOS-mCherry oligomers at rising molar ratios; release of wild-type monomers followed (Supplementary Fig. 5); conditions: both partners purified

| molar ratio of mutant to wild-type oligomers at which the release of wild-type monomers saturates [2] | Binder | stoichiometry N [1] |
| --- | --- | --- |
|  | rh wild-type Bri2 BRICHOS (domain or fragment, human, UniProt Q9Y287 113-231, looked up, Bri2 BRICHOS domain, human (rh = recombinant human), Bri2 residues 113-231; also called rh wt Bri2 BRICHOS; wild-type monomers; source: E. coli SHuffle T7, purified (Ni-NTA, thrombin cleavage, second Ni-NTA, SEC); not shown: His6, N-terminal, cleaved; NT*, N-terminal, cleaved) QTIEENIKIFEEEEVEFISVPVPEFADSDPANIVHDFNKKLTAYLDLNLDKCYVIPLNTSIVMPPRNLLELLINIKAGTYLPQSYLIHEHMVITDRIENIDHLGFFIYRLCHDKETYKL | 2 |
| ~2 mol/mol | rh Bri2 BRICHOS R221E monomer (domain or fragment, human, UniProt Q9Y287 113-231, looked up, intramolecular disulfide bond between the two conserved Cys (monomer, by ESI-MS), Bri2 BRICHOS domain, human (rh = recombinant human), Bri2 residues 113-231, with R221E; Used here for the isolated monomer and as the subunit in the rows on self-association (oligomers, dimers); Measured mass 14,050.2 Da; also called rh Bri2 R221E monomer; source: E. coli SHuffle T7, purified (Ni-NTA, thrombin cleavage, second Ni-NTA, SEC); not shown: His6, N-terminal, cleaved; NT*, N-terminal, …) QTIEENIKIFEEEEVEFISVPVPEFADSDPANIVHDFNKKLTAYLDLNLDKCYVIPLNTSIVMPPRNLLELLINIKAGTYLPQSYLIHEHMVITDRIENIDHLGFFIYELCHDKETYKL |  |
